Values belong to the compound of their own block, whether it stands above or below them.
Tests used:
[1] = biological target: T1, LRRK2 (Homo sapiens, UniProt Q5S007, G2019S); assay: in vitro kinase assay with recombinant LRRK2 and Rab10, inhibitor at […]; assay type: biochemical
T1 construct: GST-LRRK2 (residues 960-2527)

[2] = biological target: HIS-tagged Rabin8 (residues 144-460) (human) (UniProt Q96QF0)
[3] = biological target: Rabin8 (Rab3IP) 144-460 (UniProt Q96QF0); assay: Ni2+-NTA pull-down by His-Rabin8; settings: reference: non-phosphorylated Rab8a; sites T72

Chain of HIS-tagged Rabin8 (residues 144-460) (human) (Q96QF0 144-460): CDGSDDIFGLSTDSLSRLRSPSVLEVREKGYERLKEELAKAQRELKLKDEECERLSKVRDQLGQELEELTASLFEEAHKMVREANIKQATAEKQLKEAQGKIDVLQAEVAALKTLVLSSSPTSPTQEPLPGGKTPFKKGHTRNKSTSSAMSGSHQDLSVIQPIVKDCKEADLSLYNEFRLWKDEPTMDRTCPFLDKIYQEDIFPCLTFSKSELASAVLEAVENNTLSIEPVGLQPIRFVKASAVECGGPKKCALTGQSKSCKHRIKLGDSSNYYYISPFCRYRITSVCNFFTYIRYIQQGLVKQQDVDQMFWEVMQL
T1 sequence (Q5S007 960-2527 G2019S): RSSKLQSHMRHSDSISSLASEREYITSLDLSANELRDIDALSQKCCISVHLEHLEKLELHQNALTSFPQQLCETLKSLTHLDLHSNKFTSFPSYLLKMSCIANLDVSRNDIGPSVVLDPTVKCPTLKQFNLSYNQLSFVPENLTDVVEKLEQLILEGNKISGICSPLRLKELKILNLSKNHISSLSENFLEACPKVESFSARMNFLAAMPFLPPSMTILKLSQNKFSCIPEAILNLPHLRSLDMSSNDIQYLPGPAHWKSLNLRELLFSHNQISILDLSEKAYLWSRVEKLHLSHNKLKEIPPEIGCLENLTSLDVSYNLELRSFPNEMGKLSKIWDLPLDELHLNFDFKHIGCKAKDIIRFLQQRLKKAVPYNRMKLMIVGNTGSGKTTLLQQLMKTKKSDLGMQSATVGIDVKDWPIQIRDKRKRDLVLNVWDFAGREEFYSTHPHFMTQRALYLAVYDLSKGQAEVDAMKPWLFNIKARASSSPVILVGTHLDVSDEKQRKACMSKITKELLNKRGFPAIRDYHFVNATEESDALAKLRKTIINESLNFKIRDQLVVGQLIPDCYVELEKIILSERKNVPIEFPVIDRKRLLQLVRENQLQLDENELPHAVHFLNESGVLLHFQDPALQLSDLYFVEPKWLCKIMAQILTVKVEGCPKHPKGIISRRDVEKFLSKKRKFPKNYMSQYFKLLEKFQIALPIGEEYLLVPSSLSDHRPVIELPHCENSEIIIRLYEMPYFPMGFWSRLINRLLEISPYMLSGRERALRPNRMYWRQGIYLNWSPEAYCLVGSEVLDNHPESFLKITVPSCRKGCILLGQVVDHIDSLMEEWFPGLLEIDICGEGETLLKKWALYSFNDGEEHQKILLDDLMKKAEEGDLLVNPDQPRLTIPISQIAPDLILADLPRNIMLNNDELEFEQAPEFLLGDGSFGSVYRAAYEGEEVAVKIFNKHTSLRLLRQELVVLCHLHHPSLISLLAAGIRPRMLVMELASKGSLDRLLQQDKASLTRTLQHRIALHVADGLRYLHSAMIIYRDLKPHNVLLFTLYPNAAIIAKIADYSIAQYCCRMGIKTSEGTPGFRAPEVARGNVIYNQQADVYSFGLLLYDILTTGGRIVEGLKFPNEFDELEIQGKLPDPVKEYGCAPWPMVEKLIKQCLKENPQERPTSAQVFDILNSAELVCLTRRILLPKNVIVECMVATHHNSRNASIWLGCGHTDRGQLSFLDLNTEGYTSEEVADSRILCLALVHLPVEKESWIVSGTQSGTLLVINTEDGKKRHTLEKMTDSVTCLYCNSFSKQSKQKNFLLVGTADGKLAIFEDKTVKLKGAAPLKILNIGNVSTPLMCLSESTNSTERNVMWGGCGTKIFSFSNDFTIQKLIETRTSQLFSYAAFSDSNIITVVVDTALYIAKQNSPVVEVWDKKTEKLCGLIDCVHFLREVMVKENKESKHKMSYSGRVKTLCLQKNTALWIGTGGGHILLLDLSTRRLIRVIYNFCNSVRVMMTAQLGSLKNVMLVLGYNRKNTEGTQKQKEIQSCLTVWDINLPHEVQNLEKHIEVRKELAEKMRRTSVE

Compound: O=C(Nc1cccnc1)c1cc(-c2ccnc(F)c2)ccc1OCc1ccccc1 [GSK2578215A]
in vitro kinase assay with recombinant LRRK2 and Rab10, inhibitor at 2 μM [1]: Inhibition of LRRK2-G2019S by GSK2578215A or HG-10-102-01 prevents phosphorylation.

rate of Rabin8-catalyzed mant-GDP exchange (GEF assay with Rabin8 144-245, 2 μM), T72-phosphorylated against non-phosphorylated Rab8a (1-183): inhibition [2]: 4 fold
Compound: Rab8a (1-183) quantitatively phosphorylated pT72 (from UniProt P61006 1-183) (domain or fragment)

binding against the reference [3]: weaker
Compound: Rab8a 1-183 (from UniProt P61006) LRRK2-G2019S-phosphorylated, ion-exchange-enriched pT72-Rab8a

Source: paper PMC4769169 (eLife, 2016)
